Measurements as given in PMC2217137.

Target: rabbit skeletal muscle Ca2+ release channel (ryanodine receptor), purified 30 S complex (rabbit) (UniProt P11716)
Assay: single-channel recording in planar lipid bilayers

Substance | Kd | time constant of dwell times in the burst (toxin-free) state at 100 nM IpTxa | time constant of dwell times in the subconductance (toxin-bound) state | K m (of P substate against [IpTxa])
imperatoxin activator (IpTxa), native, purified from Pandinus imperator venom (from UniProt P59868 1-33) (peptide) | 18.2 nM | 965 ms | 3380 ms | 
imperatoxin activator (IpTxa), synthetic (from UniProt P59868 1-33) (peptide) |  |  |  | 2 nM
